The numbers were not newly measured in PMC11603612, which cites them from elsewhere.

For data set [1], the target named is Asp162 (UniProt position 145, RLTREDVEKHL).
Data set [2] concerns the target His142 (UniProt position 125, RLLAEHNLDAS).
Data set [3] has as its target His166 (UniProt position 149, EDVEKHLAKAP).
The target of data set [4] is Glu164 (UniProt position 147, TREDVEKHLAK).
Data set [5] deals with Glu161 (UniProt position 144, GRLTREDVEKH).
Data set [6] addresses Asp129 (UniProt position 112, EEQNNDALSPA).
Data set [7] has as its target Asp145 (UniProt position 128, AEHNLDASAIK).
Data set [8] concerns the target Glu141 (UniProt position 124, RRLLAEHNLDA).
Data set [9] has as its target Glu17 (UniProt position 17, KGKKGEIKNVA).
For data set [10], the target named is Glu38 (UniProt position 38, QGLAIEATPAN).
In data set [11] the target is Glu54 (UniProt position 54, AQKQKEQRQAA).
Data set [12] has as its target Asp8 (UniProt position 8, VIFLKDVKGKG).
The target of data set [13] is Glu48 (UniProt position 48, NLKALEAQKQK).
Data set [14] deals with Asp23 (UniProt position 23, IKNVADGYANN).
Data set [15] deals with Asp53 (UniProt position 79, HESLADVQAVC).
In data set [16] the target is Glu9 (UniProt position 35, AAAKFERQHMD).
Data set [17] has as its target Glu86 (UniProt position 112, ITDCRETGSSK).
The target of data set [18] is His12 (UniProt position 38, KFERQHMDSST).
In data set [19] the target is Glu49 (UniProt position 75, NTFVHESLADV).
The target in data set [20] is Asp14 (UniProt position 40, ERQHMDSSTSA).
Data set [21] deals with Glu111 (UniProt position 137, IIVACEGNPYV).
For data set [22], the target named is Asp38 (UniProt position 64, RNLTKDRCKPV).
Data set [23] concerns the target His48 (UniProt position 74, VNTFVHESLAD).
Data set [24] addresses Glu2 (UniProt position 28, PSLGKETAAAK).
Data set [25] concerns the target His119 (UniProt position 145, PYVPVHFDASV).
Data set [26] has as its target Asp121 (UniProt position 147, VPVHFDASV--).
The target in data set [27] is His105 (UniProt position 131, TQANKHIIVAC).
For data set [28], the target named is Asp83 (UniProt position 109, TMSITDCRETG).
The target of data set [29] is Glu154 (UniProt position 154, TGYQVEV----).
Data set [30] addresses His124 (UniProt position 124, EWVKGHAGHPE).
For data set [31], the target named is Asp10 (UniProt position 10, VEIFTDGSCLG).
In data set [32] the target is Glu6 (UniProt position 6, MLKQVEIFTDG).
In data set [33] the target is Glu32 (UniProt position 32, RYRGREKTFSA).
Data set [34] deals with Asp134 (UniProt position 134, ENERCDELARA).
Data set [35] addresses Glu48 (UniProt position 48, TNNRMELMAAI).
Data set [36] addresses Glu61 (UniProt position 61, LEALKEHCEVI).
In data set [37] the target is His62 (UniProt position 62, EALKEHCEVIL).
The target in data set [38] is Glu135 (UniProt position 135, NERCDELARAA).
The target in data set [39] is Asp70 (UniProt position 70, VILSTDSQYVR).
Data set [40] concerns the target Glu64 (UniProt position 64, LKEHCEVILST).
The target of data set [41] is Asp108 (UniProt position 108, LWQRLDAALGQ).
Data set [42] concerns the target Glu147 (UniProt position 147, MNPTLEDTGYQ).
In data set [43] the target is Glu119 (UniProt position 119, HQIKWEWVKGH).
Data set [44] concerns the target Asp94 (UniProt position 94, GWKTADKKPVK).
The target in data set [45] is Glu131 (UniProt position 131, GHPENERCDEL).
Data set [46] addresses His127 (UniProt position 127, KGHAGHPENER).
Data set [47] concerns the target Glu129 (UniProt position 129, HAGHPENERCD).
The target in data set [48] is Glu57 (UniProt position 57, AIVALEALKEH).
For data set [49], the target named is His121 (UniProt position 203, KPNNTHEQHLR).
The target of data set [50] is Asp19 (UniProt position 101, LIKAIDGDTVK).
Data set [51] deals with Glu52 (UniProt position 134, PKKGVEKYGPE).
The target of data set [52] is Glu67 (UniProt position 149, TKKMVENAKKI).
For data set [53], the target named is Glu135 (UniProt position 217, AQAKKEKLNIW).
Data set [54] has as its target His8 (UniProt position 90, STKKLHKEPAT).
Data set [55] addresses Glu129 (UniProt position 211, HLRKSEAQAKK).
Data set [56] addresses Glu101 (UniProt position 183, GKMVNEALVRQ).
Data set [57] deals with Glu73 (UniProt position 155, NAKKIEVEFDK).
Data set [58] addresses Glu10 (UniProt position 92, KKLHKEPATLI).
Data set [59] deals with Asp21 (UniProt position 103, KAIDGDTVKLM).
In data set [60] the target is Glu57 (UniProt position 139, EKYGPEASAFT).
In data set [61] the target is Glu43 (UniProt position 125, LVDTPETKHPK).
The target in data set [62] is Asp40 (UniProt position 122, RLLLVDTPETK).
For data set [63], the target named is Glu122 (UniProt position 204, PNNTHEQHLRK).
Data set [64] addresses Glu75 (UniProt position 157, KKIEVEFDKGQ).
For data set [65], the target named is Asp95 (UniProt position 177, AYIYADGKMVN).
Data set [66] concerns the target Glu13 (UniProt position 13, KTAFQEALDAA).
Data set [67] deals with Glu95 (UniProt position 95, SGANKEKLEAT).
Data set [68] addresses Glu70 (UniProt position 70, VASECEVKCMP).
Data set [69] has as its target Asp16 (UniProt position 16, FQEALDAAGDK).
Data set [70] addresses Glu6 (UniProt position 6, MVKQIESKTAF).
Data set [71] has as its target Asp20 (UniProt position 20, LDAAGDKLVVV).
In data set [72] the target is Asp58 (UniProt position 58, IFLEVDVDDCQ).
The target of data set [73] is Asp60 (UniProt position 60, LEVDVDDCQDV).
For data set [74], the target named is Glu88 (UniProt position 88, GQKVGEFSGAN).
The target of data set [75] is Glu47 (UniProt position 47, FHSLSEKYSNV).
For data set [76], the target named is Glu98 (UniProt position 98, NKEKLEATINE).
The target of data set [77] is Glu56 (UniProt position 56, NVIFLEVDVDD).
For data set [78], the target named is Glu68 (UniProt position 68, QDVASECEVKC).
Data set [79] addresses Asp61 (UniProt position 61, EVDVDDCQDVA).
Data set [80] has as its target Asp64 (UniProt position 64, VDDCQDVASEC).
For data set [81], the target named is Glu103 (UniProt position 103, EATINELV---).
The test system of data set [82] is Asp8.
Data set [83] concerns His53.
Data set [84] has as its system Asp27.
In data set [85] the test system is Glu44.
Data set [86] deals with Glu20.
In data set [87] the test system is Glu11.
Data set [88] has as its target Asp46 (UniProt position 796, HLSDEDFKAVF).
For data set [89], the target named is Asp44 (UniProt position 794, ENHLSDEDFKA).
The target of data set [90] is Glu72 (UniProt position 822, QNLKKEKGLF-).
Data set [91] concerns the target Glu45 (UniProt position 795, NHLSDEDFKAV).
Data set [92] has as its target Asp5 (UniProt position 32, SAASTDYWQNW).
The target in data set [93] is His157 (UniProt position 184, NAWKSHGMNLG).
Data set [94] addresses Asp122 (UniProt position 149, PSIDGDRTTFT).
Data set [95] addresses Glu79 (UniProt position 106, RSPLIEYYVVD).
Data set [96] has as its target Asp107 (UniProt position 134, DGGTYDIYTTT).
In data set [97] the target is Asp12 (UniProt position 39, WQNWTDGGGIV).
For data set [98], the target named is Asp120 (UniProt position 147, NAPSIDGDRTT).

As for “BBL (peripheral subunit-binding domain of 2-oxoglutarate dehydrogenase E2) (Escherichia coli (inferred))”, the pKa (as a rule, the pH at which an ionisable group is half protonated) in data set [1] is given as 3.2; in data set [2], 6.5; in [3], 5.4; in data set [4], 4.5; in [5], 3.7; in data set [6] it was 3.9. The pKa in data set [7] is 3.7; in [8], 4.5.

For the substance “N-terminal domain of ribosomal protein L9 (NTL / NTL9) (Geobacillus stearothermophilus (inferred))”, the pKa is listed as 3.6 in [9]; 4 in [10]; 4.2 in [11]; 3 in data set [12]; 4.2 in [13]; 3.1 in data set [14].

For “Ribonuclease A (RNaseA) (Bos taurus (inferred))”, the pKa in data set [15] was 3.9; in data set [16], 4; in [17], 4.1; in data set [18], 6.2; in data set [19], 4.7; in data set [20], 2. Besides, the pKa in data set [21] is reported as 3.6; in [22], 3.5; in data set [23], 6; in data set [24], 2.8; in data set [25], 6.1; in data set [26], 3.1. The pKa is reported as 6.7 in [27] and 3.5 in data set [28].

“Ribonuclease HI (RNaseH) (Escherichia coli)”: the pKa in data set [29] is given as 4.4; in [30], 7.1; in [31], 6.1; in data set [32], 4.5; in [33], 3.6; in data set [34], 4.1. Further, the pKa is recorded as 4.4 in [35]; 3.9 in data set [36]; 7 in data set [37]; 4.3 in data set [38]; 2.6 in [39]; 4.4 in [40]. The pKa is given as 3.2 in data set [41]; 4.2 in data set [42]; 4.1 in [43]; 3.2 in data set [44]; 4.3 in data set [45]; 7.9 in [46]. For the same substance, the pKa is recorded as 3.6 in data set [47] and 3.2 in data set [48].

Take “Staphylococcal nuclease (SNase) (Staphylococcus aureus (inferred))”: the pKa was 5.2 in data set [49]; 2.2 in data set [50]; 3.9 in data set [51]; 3.8 in [52]; 3.8 in data set [53]; 6.5 in data set [54]. Also, the pKa was 3.8 in data set [55]; 3.8 in data set [56]; 3.3 in data set [57]; 2.8 in [58]; 6.5 in data set [59]; 3.5 in data set [60]. Also, the pKa in data set [61] is reported as 4.3; in [62], 3.9; in data set [63], 3.9; in data set [64], 3.3; in data set [65], 2.2.

“Thioredoxin (residue set of human thioredoxin) (Homo sapiens (inferred from residue set; not stated))”: the pKa is listed as 4.4 in [66]; 4.1 in data set [67]; 4.6 in data set [68]; 4 in data set [69]; 4.8 in [70]; 3.8 in data set [71]. The pKa in data set [72] is 5.3; in data set [73] it was 2.8; in data set [74], 3.7; in [75], 4.1; in data set [76], 3.9; in data set [77], 5.1. The pKa is given as 4.9 in [78], 4.2 in [79], 3.2 in data set [80] and 4.4 in data set [81].

Turning to “Turkey ovomucoid third domain (OMTKY3) (Meleagris gallopavo (inferred))”, the pKa in data set [82] is on record as 2.7; in data set [83], 7.5; in data set [84], 2.3; in [85], 4.8; in data set [86], 3.2; in data set [87], 4.1.

With “Villin headpiece subdomain HP36 (Gallus gallus (inferred))”, the pKa in data set [88] is given as 3.5; in [89] it was 3.1; in data set [90] it was 4.4; in data set [91], 4.

As for “Xylanase (family 11 endo-1,4-beta-xylanase) (Bacillus circulans (inferred))”, the pKa in data set [92] was 3; in [93], 6.5; in data set [94], 3.6; in [95] it was 4.6; in data set [96], 2.7; in data set [97], 2.5. Further, the pKa in [98] is 3.2.
